Key:
[1] = target: T1, monkey CEA expressed on CHO cell surface (cynomolgus monkey); test: FACS, cynoCEA-CHO cells
T1 construct: also called cynoCEA-CHO; monkey CEA proteins on the cell surface
T1 chain: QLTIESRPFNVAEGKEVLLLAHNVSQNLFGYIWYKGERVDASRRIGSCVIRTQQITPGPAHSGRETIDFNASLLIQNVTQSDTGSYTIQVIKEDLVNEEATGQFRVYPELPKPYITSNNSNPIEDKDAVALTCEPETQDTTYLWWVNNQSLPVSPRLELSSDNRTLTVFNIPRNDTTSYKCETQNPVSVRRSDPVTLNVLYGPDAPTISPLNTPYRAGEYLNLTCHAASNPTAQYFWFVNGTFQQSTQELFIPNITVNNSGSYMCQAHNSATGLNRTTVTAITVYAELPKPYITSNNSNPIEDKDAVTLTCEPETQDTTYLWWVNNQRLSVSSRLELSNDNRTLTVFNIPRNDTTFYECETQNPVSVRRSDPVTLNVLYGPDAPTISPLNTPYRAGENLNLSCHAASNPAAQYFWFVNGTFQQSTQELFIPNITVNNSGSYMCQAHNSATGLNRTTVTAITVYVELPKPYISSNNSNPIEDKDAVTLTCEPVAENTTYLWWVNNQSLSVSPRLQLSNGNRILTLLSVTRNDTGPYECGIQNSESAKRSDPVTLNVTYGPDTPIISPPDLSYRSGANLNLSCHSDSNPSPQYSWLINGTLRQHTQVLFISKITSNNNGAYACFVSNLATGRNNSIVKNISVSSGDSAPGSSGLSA

[2] = target: T2, human CEACAM1 expressed on CHO cell surface (human, UniProt P13688 35-526); test: FACS, CEACAM1-CHO cells
T2 construct: also called CEACAM1-CHO
T2 sequence: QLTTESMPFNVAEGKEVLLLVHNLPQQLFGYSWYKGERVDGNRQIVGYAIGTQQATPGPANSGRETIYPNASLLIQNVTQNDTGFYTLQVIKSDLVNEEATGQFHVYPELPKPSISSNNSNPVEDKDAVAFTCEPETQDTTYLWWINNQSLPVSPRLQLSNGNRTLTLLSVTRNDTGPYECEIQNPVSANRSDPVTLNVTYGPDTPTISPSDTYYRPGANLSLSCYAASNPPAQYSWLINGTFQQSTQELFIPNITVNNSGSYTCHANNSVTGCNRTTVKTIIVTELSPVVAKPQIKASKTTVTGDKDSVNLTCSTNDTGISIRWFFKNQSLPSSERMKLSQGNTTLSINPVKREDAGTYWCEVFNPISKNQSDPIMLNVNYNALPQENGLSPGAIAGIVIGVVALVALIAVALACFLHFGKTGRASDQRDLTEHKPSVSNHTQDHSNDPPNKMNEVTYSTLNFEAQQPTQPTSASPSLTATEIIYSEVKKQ

[3] = target: T3, human CEA protein on the cell surface (human, UniProt P06731 35-685); test: cell-based or functional assay
T3 sequence (looked up): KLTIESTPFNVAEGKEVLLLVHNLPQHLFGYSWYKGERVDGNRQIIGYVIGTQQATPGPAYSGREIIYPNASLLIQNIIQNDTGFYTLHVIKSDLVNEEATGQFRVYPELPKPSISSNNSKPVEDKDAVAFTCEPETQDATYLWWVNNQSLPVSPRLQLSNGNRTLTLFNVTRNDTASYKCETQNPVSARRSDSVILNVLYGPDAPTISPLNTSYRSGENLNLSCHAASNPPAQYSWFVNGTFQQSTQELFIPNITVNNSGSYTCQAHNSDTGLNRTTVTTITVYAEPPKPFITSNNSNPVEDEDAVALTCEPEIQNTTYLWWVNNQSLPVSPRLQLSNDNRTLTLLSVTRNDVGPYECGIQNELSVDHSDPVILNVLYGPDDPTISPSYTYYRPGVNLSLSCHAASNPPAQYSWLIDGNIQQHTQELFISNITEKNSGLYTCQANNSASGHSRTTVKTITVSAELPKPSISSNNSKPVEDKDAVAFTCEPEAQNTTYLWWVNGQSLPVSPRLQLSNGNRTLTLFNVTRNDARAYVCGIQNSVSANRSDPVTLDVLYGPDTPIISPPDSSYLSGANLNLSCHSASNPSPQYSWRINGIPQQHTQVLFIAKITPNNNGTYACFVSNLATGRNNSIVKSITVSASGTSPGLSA

human soluble CEA = target: T4, human soluble CEA (human, UniProt P06731 35-685, limits assumed); test: SPR (Biacore T200), antibody captured, soluble CEA as analyte, 1:1 Langmuir
T4 construct: also called sCEA
T4 sequence (looked up): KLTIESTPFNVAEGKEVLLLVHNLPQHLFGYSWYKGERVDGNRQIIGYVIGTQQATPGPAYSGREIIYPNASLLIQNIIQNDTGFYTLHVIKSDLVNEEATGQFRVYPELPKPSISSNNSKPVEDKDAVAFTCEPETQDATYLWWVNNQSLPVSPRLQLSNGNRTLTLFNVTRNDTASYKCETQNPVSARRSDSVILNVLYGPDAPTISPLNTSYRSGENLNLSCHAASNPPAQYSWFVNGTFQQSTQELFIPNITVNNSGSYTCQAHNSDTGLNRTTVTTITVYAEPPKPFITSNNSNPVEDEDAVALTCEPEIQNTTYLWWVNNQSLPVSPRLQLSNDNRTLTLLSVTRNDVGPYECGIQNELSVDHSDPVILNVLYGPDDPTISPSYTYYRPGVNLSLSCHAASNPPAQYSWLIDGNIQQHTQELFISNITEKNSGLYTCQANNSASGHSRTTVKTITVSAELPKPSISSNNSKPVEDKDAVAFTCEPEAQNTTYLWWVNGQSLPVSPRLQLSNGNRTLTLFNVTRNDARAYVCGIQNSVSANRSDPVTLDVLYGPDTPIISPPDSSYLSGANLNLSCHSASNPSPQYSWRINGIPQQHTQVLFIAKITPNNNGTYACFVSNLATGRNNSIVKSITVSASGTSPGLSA
Protocol: The affinity of a test humanized antibody for human and monkey soluble CEA was determined using a Biacore (GE, T200) instrument. According to the method in the instructions of a human antibody capture kit (GE, Cat #BR-1008-39), the human antibody capture antibody was covalently conjugated to a biosensor chip CM5 (GE, Cat #BR-1005-30) of the Biacore instrument to affinity-capture a certain amount of the test antibody, then a series of concentration gradients of soluble CEA antigens were allow to flow through the surface of the chip, and reaction signals were detected in real time using Biacore, so that an association and dissociation curve was obtained. After each cycle of dissociation was completed, the biochip was washed and regenerated with a regeneration solution prepared in the human antibody capture kit. The data obtained from the experiment were fitted with the (1:1) Langmuir model using BIAevaluation version 4.1 software to obtain affinity values.

[4] = target: T3, human CEA protein on the cell surface; test: FACS, MKN45 cells

Binder	EC50 [1]	binding result [2]	IC50 of inhibition of cell proliferation, LS174T (with moderate CEA expression) [3]	IC50 of inhibition of cell proliferation, MKN45 (with high CEA expression) [3]	Kd (human soluble CEA)	EC50 [4]	binding result [1]
antibody in SAR-408701 (antibody, human IgG1, kappa, V domains shown, Positive control antibody; also called Sanofi) VH: EVQLQESGPGLVKPGGSLSLSCAASGFVFSSYDMSWVRQTPERGLEWVAYISSGGGITYAPSTVKGRFTVSRDNAKNTLYLQMNSLTSEDTAVYYCAAHYFGSSGPFAYWGQGTLVTVSS VL: DIQMTQSPASLSASVGDRVTITCRASENIFSYLAWYQQKPGKSPKLLVYNTRTLAEGVPSRFSGSGSGTDFSLTISSLQPEDFATYYCQHHYGTPFTFGSGTKLEIKR	17.3 nM	no binding					
Hu63-13-2-A (DAR 3.97) (antibody, human IgG1, kappa, V domains shown, see heavy chain; linker-toxin 2-A coupled to cysteine thiols of the TCEP-reduced antibody; mean DAR 3.97 per antibody) VH: EVQLVQSGAEVKKPGASVKVSCKASGYTFTDFYMNWVRQAPGQGLEWMGDIFPKSGNTDYNRKFKDRVTMTRDTSTSTVYMELSSLRSEDTAVYYCARSGYGNYVFDYWGQGTLVTVSS VL: DIQMTQSPSSLSASVGDRVTITCRTSQDINIYLNWYQQKPGKAPKLLIYYRSGLLSGVPSRFSGSGSGTDFTLTISSLQPEDFATYYCQQGNTLPPTFGGGTKVEIKR			19.8 nM	34 nM			
Hu63-13-2-A (DAR 6.29) (antibody, human IgG1, kappa, V domains shown, see heavy chain; linker-toxin 2-A coupled to cysteine thiols of the TCEP-reduced antibody; mean DAR 6.29 per antibody) VH: EVQLVQSGAEVKKPGASVKVSCKASGYTFTDFYMNWVRQAPGQGLEWMGDIFPKSGNTDYNRKFKDRVTMTRDTSTSTVYMELSSLRSEDTAVYYCARSGYGNYVFDYWGQGTLVTVSS VL: DIQMTQSPSSLSASVGDRVTITCRTSQDINIYLNWYQQKPGKAPKLLIYYRSGLLSGVPSRFSGSGSGTDFTLTISSLQPEDFATYYCQQGNTLPPTFGGGTKVEIKR			13.1 nM	3.93 nM			
Hu63-13 (antibody, human IgG1, kappa, V domains shown, Humanized IgG1/kappa; h63VH5 + h63VL1) VH: EVQLVQSGAEVKKPGASVKVSCKASGYTFTDFYMNWVRQAPGQGLEWMGDIFPKSGNTDYNRKFKDRVTMTRDTSTSTVYMELSSLRSEDTAVYYCARSGYGNYVFDYWGQGTLVTVSS VL: DIQMTQSPSSLSASVGDRVTITCRTSQDINIYLNWYQQKPGKAPKLLIYYRSGLLSGVPSRFSGSGSGTDFTLTISSLQPEDFATYYCQQGNTLPPTFGGGTKVEIKR	1.71 nM	no binding			144 nM	2.93 nM	
Hu103-32-2-A (DAR 4.8) (antibody, human IgG1, lambda, V domains shown, see heavy chain; linker-toxin 2-A coupled to cysteine thiols of the TCEP-reduced antibody; mean DAR 4.8 per antibody) VH: EVQLVQSGSELKKPGASVKVSCKASGYTFTTYGVIWVRQAPGQGLEWMGWINTYSGVPTYASDFKGRFVFSLDTSVSTAYLQISSLKAEDTAVYYCARKKTLTTVTPWFAYWGQGTLVTVSS VL: ELVLTQSPSASASLGASVKLTCTLSSQHSTYTIEWYQQQPEKGPRYVMELKKDGSHSTGEGIPDRFSGSSSGAERYLTISSLQSEDEADYYCGVGNTIKEQFVYVFGGGTKLTVLG			3.08 nM	2.86 nM			
Hu103-32 (antibody, human IgG1, lambda, V domains shown, Humanized IgG1/lambda; h103VH4 + h103VL8) VH: EVQLVQSGSELKKPGASVKVSCKASGYTFTTYGVIWVRQAPGQGLEWMGWINTYSGVPTYASDFKGRFVFSLDTSVSTAYLQISSLKAEDTAVYYCARKKTLTTVTPWFAYWGQGTLVTVSS VL: ELVLTQSPSASASLGASVKLTCTLSSQHSTYTIEWYQQQPEKGPRYVMELKKDGSHSTGEGIPDRFSGSSSGAERYLTISSLQSEDEADYYCGVGNTIKEQFVYVFGGGTKLTVLG		no binding			31.1 nM	1.79 nM	
Labetuzumab (antibody, human IgG1, kappa, V domains shown, Positive control antibody; also called Lmab; antibody in Lmab-CL2A-SN38) VH: EVQLVESGGGVVQPGRSLRLSCSASGFDFTTYWMSWVRQAPGKGLEWIGEIHPDSSTINYAPSLKDRFTISRDNAKNTLFLQMDSLRPEDTGVYFCASLYFGFPWFAYWGQGTPVTVSS VL: DIQLTQSPSSLSASVGDRVTITCKASQDVGTSVAWYQQKPGKAPKLLIYWTSTRHTGVPSRFSGSGSGTDFTFTISSLQPEDIATYYCQQYSLYRSFGQGTKVEIKR		no binding			5.93 nM	2.45 nM	no binding
Hu67-14-2-A (DAR 4.28) (antibody, human IgG1, kappa, V domains shown, see heavy chain; linker-toxin 2-A coupled to cysteine thiols of the TCEP-reduced antibody; mean DAR 4.28 per antibody) VH: EVQLVQSGAEVKKPGESLKISCKGSGYSFTDYHMNWVKQMPGKGLEWMGDINPDIGGTSYNQNFKGKVTISVDKSISTAYLQWSSLKASDTAMYYCARWDFDSFANWGQGTLVTVSS VL: DIQMTQSPSSLSASVGDRVTITCRASESVSIIGTNLIHWYQQKPGKAPKLLIYHASNLETGVPSRFSGSGSGTDFTLTISSLQPEDFATYYCLQSRKIPYTFGGGTKVEIKR			15.6 nM	9.39 nM			
Hu67-14 (antibody, human IgG1, kappa, V domains shown, Humanized IgG1/kappa; h67VH3 + h67VL4) VH: EVQLVQSGAEVKKPGESLKISCKGSGYSFTDYHMNWVKQMPGKGLEWMGDINPDIGGTSYNQNFKGKVTISVDKSISTAYLQWSSLKASDTAMYYCARWDFDSFANWGQGTLVTVSS VL: DIQMTQSPSSLSASVGDRVTITCRASESVSIIGTNLIHWYQQKPGKAPKLLIYHASNLETGVPSRFSGSGSGTDFTLTISSLQPEDFATYYCLQSRKIPYTFGGGTKVEIKR	2.89 nM	no binding			228 nM		
Hu47-14-2-A (DAR 6.6) (antibody, human IgG1, kappa, V domains shown, see heavy chain; linker-toxin 2-A coupled to cysteine thiols of the TCEP-reduced antibody; mean DAR 6.6 per antibody) VH: EVQLVQSGSELKKPGASVKVSCKASGYTFTTYGMSWVKQAPGQGLKWMGWINTYSGVPTYASDFKGRFVFSLDTSVSTAYLQISSLKAEDTAVYYCARRGNYGRWDFDVWGQGTTVTVSS VL: EIVLTQSPDFQSVTPKEKVTITCSVSSTISSSNLHWYQQKPDQSPKPLIYGTSNLASGVPSRFSGSGSGTDYTLTINSLEAEDAATYYCQQWSIYPLTFGQGTKLEIKR			10.3 nM	6.58 nM			
Hu47-14 (antibody, human IgG1, kappa, V domains shown, Humanized IgG1/kappa; h47VH4 + h47VL2) VH: EVQLVQSGSELKKPGASVKVSCKASGYTFTTYGMSWVKQAPGQGLKWMGWINTYSGVPTYASDFKGRFVFSLDTSVSTAYLQISSLKAEDTAVYYCARRGNYGRWDFDVWGQGTTVTVSS VL: EIVLTQSPDFQSVTPKEKVTITCSVSSTISSSNLHWYQQKPDQSPKPLIYGTSNLASGVPSRFSGSGSGTDYTLTINSLEAEDAATYYCQQWSIYPLTFGQGTKLEIKR	2.7 nM	no binding			1430 nM	4.19 nM	

— patent publication US20230055408A1 (JIANGSU HENGRUI MEDICINE, published 2023)
